Drawing on patent US6759384, this text covers Ki for 75 substances.

Non-standard residues stand in square brackets, D forms with d. *: point of attachment. 2Nal = N[C@@H](Cc1ccc2ccccc2c1)C(=O)O; Cha = N[C@@H](CC1CCCCC1)C(=O)O; Tos = Cc1ccc(S(=O)(=O)*)cc1; Cbz = O=C(OCc1ccccc1)*

As a reminder, the Ki is the dissociation constant of the complex between target and ligand, obtained from inhibition or displacement. Read a high Ki as weaker binding.

The assay addresses human factor Xa (Enzyme Research Laboratories, Inc.) (human) (UniProt P00742). Nature of the assay: chromogenic FXa inhibition.

Sequence of human factor Xa (Enzyme Research Laboratories, Inc.) (human) (P00742 41-179 limits assumed, chain 1 of 2): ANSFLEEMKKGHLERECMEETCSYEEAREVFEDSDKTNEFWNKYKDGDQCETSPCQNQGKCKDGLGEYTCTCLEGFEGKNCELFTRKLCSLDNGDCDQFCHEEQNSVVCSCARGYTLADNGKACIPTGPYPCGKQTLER
Sequence of human factor Xa (Enzyme Research Laboratories, Inc.) (human) (P00742 235-488 limits assumed, chain 2 of 2): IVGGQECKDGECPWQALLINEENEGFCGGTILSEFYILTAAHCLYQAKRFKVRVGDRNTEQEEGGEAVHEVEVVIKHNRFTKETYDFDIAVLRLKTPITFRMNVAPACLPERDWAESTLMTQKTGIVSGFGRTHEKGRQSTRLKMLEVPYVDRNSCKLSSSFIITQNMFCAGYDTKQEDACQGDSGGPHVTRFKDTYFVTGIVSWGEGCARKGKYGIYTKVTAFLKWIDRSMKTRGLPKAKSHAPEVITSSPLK

For Ac-Pgl(OH)-I-R-L-NH2 (peptide), the inhibitory constant (Ki) is below 100 µM. For Ac-Y-I-R-Piperidyl (peptide), the inhibitory constant (Ki) was below 100 µM.

For the substance Ac-Y-Chg-R-NH-CH2CH2-N(CH3)4 (peptide), the Ki is below 100 µM.

Ac-Y-Chg-R-NH-Chx (peptide) returned a Ki below 100 µM. For “Ac-pAph-Chg-NH-(4-trimethyl-ammonium benzyl) (peptide)”, the inhibition constant Ki was below 100 µM. The same measure for “Ac-pAph-Chg-NH-(4-amidinobenzyl) (peptide)”: below 100 µM. “Ac-pAph-Chg-Dab(CH ═N(CH3)2)-Leu-Pro-NH2 (peptide)” had an inhibitory constant (Ki) below 100 µM. Ac-(Bzl)Y-I-R-NH2 (peptide) returned a Ki below 100 µM.

On to Ac-Nal(2)-Chg-R-NH2 (peptide), for which the Ki is below 100 µM. Ac-D-pAph-Chg-Arg-Leu-Pro-NH2 (peptide) had a Ki below 100 µM. In the case of Nal(2)-Cha-R-D(O-Allyl)-NH2 (peptide), the inhibition constant (Ki) is below 100 µM. Substance “Ac-pAph-Cha-PalMe(3)-(Me)Leu-Pro-NH2 (peptide)” returned an inhibition constant Ki below 100 µM. The same measure for Caff-I-R-NH2 (peptide): below 100 µM. “Ac-D-pAph-Chg-Arg-Cys-(CH2-COOH)-Pro-NH2 (peptide)” came in with an inhibition constant (Ki) below 100 µM.

Regarding “(N-(5-methyl-2-thienoyl)-pAph-Chg-NH-(4-trimethyl-ammonium benzyl) (peptide)”, the Ki was below 100 µM.

In turn, Tfa-(iBu)Y-I-R-OH (peptide) returned an inhibition constant (Ki) below 100 µM. Tfa-(iBu)Y-Chg-R-NH2 (peptide) yielded a Ki below 100 µM. The same measure for Ac-D-pAph-Chg-Arg-NH2 (peptide): below 100 µM; for “Ac-Y-Chg-R-NH-CH2(2-(1-Et)pyrrolidinyl) (peptide)”: below 100 µM; for “Ac-Pal(4)Me-Chg-PalMe(3)-Leu-Pro-NH2 (peptide)”: below 100 µM. As for Ac-Y-I-R-NH-CH2-4-Pyridyl (peptide), the Ki was below 100 µM. As for y-Tle-R-Nle-P-NH2 (peptide), the figure is below 100 µM. For the substance “Ac-Y-I-R-L-P-Dab(Ac-Y-I-R-L-P(G-A)3)-OH (peptide)”, the Ki is below 100 µM.

With Tos-Tyr-Ile-Arg-NH2, the Ki was below 100 µM. Substance Ac-pAph-Pgl-PalMe(3)-NH2 (peptide) had a Ki below 100 µM. The same measure for Ac-Y-I-R-NH2 (peptide): below 100 µM; for Ac-pAph-Chg-Arg (peptide): below 100 µM.

Consider “Ac-pAph-Chg-PalMe(3)-Leu-Pro-NH2 (peptide)”, for which the inhibitory constant (Ki) is below 100 µM. With pAph-Chg-Arg-Leu-Pro-NH2 (peptide), the Ki was below 100 µM.

Consider Y-I-R-NH2 (peptide), for which the inhibition constant (Ki) was below 100 µM. Consider Ac-Y-I-PalMe(3)-NH2 (peptide), for which the Ki is below 100 µM. “Nal(2)-Cha-R-D(O-Allyl)-Sar-NH2 (peptide)” showed a Ki below 100 µM. “(2-benzofuroyl)-pAph-Chg-Arg-Pen(CH2COOH)-Pro-NH2 (peptide)”: the Ki is below 100 µM. Substance “Ac-pAph-Chg-Arg-Cys(CH2COOH)-Pro-NH2 (peptide)” had an inhibition constant Ki below 100 µM. “Ac-Nal(2)-Cha-R-D(O-Allyl)-NH2 (peptide)” gave a Ki below 100 µM. With Tfa-(iBu)F(pNH2)-Chg-R-NH2 (peptide), the inhibition constant Ki is below 100 µM. As to Tfa-(iBu)Y-I-R-NH2 (peptide), the Ki is below 100 µM. As for Ac-y-I-R-NH2 (peptide), the figure is below 100 µM; as for “(2-fluorobenzoyl)-pAph-Chg-NH-(4-trimethyl-ammonium benzyl) (peptide)”, below 100 µM. “Alloc-pAph-Chg-PalMe(3)-Pen(CH2COOH)-Pro-NH2 (peptide)”: the inhibition constant (Ki) was below 100 µM. Ac-(iBu-Nal(2)-Chg-R-L-P-NH2 (peptide) registered a Ki below 100 µM. As for “Ac-pAph-Chg-PalMe(3)-NH-(4-methoxycarbonyl-cyclohexyl)methyl (peptide)”, the Ki is below 100 µM.

In turn, 5-Hic-Chg-R-NH2 (peptide) displayed a Ki below 100 µM. As for Tfa-(iBu)Nal(2)-Chg-R-L-P-NH2 (peptide), the inhibition constant Ki is below 100 µM. The same measure for Ac-pAph-Chg-R-L-P-NH2 (peptide): below 100 µM; for Ac-(4-pyridil-CH2-)Y-I-R-NH2 (peptide): below 100 µM. For the substance “Alloc-D-pAph-Chg-Arg-Leu-Pro-NH2 (peptide)”, the Ki is below 100 µM.

Substance “Ac-Pal(4)Me-Chg-Arg-Leu-Pro-NH2 (peptide)” displayed a Ki below 100 µM. As for “Ac-pAph-Chg-NH-1-[3(N-methylpyridyl)]-1-(methylacetate)ethyl (peptide)”, the figure is below 100 µM. As for “Ac-(Bzl)G-(Chx)Gly-(3-GuanidoPropyl)G-NH2 (peptide)”, the figure is below 100 µM; as for Ac-pAph-Chg-Arg-NH2 (peptide), below 100 µM. On to “(2-benzofuroyl)-pAph-Chg-PalMe(3)-Pen(CH2COOH)-Pro-NH2 (peptide)”, for which the Ki was below 100 µM. Ac-Y-I-R-NH-OCH3 (peptide) showed a Ki below 100 µM. For the substance “(3,4-dichlorobenzoyl)-pAph-Chg-NH-(4-trimethyl-ammonium benzyl) (peptide)”, the Ki was below 100 µM. The same measure for “(t-Butoxycarbonyl)-pAph-Chg-NH-(4-trimethyl-ammonium benzyl) (peptide)”: below 100 µM; for “Ac-pAph-Chg-PalMe(3)-NH-(3-thienyl-2-carboxylic acid methyl ester) (peptide)”: below 100 µM.

In the case of “Alloc-pAph-Chg-NH-[4-(-methylpyridinium)-methyl] (peptide)”, the Ki was below 100 µM.

Regarding “Ac-pAph-Chg-Dap(CH═N(CH3)2)-Leu-Pro-NH2 (peptide)”, the inhibition constant Ki is below 100 µM. On to ClCH2CO-Y-I-R-NH2 (peptide), for which the Ki was below 100 µM.

The substance Ac-Y-I-R-NH-4-morpholinyl (peptide) registered a Ki below 100 µM.

In the case of Ac-[2Nal][Cha]RLP-NH2, the inhibition constant Ki is below 100 µM. In the case of “(Ethoxycarbonyl)-pAph-Chg-NH-(4-trimethyl-ammonium benzyl) (peptide)”, the Ki was below 100 µM.

As to “Ac-pAph-Chg-NH-[1-(1-methyl-4-pyridinium)ethyl (peptide)”, the Ki was below 100 µM. “(5-pyrazinoyl)Nal(2)-Chg-Arg-Leu-Pro-NH2 (peptide)” displayed a Ki below 100 µM. With pal-I-R-C(SBut)-Hyp-NH2 (peptide), the Ki was below 100 µM.

On to 5-Bzim-CO-Chg-R-L-P-NH2 (peptide), for which the Ki is below 100 µM.

For “(2-benzofuroyl)-Tyr-Chg-Arg-Pen-Pro-NH2 (peptide)”, the inhibition constant (Ki) was below 100 µM.

In turn, Cbz-I-R-NH2 (peptide) registered a Ki below 100 µM. As for “Ac-pAph-Chg-PalMe(3)-NH-(1-methoxycarbonyl)-1-cyclopentyl (peptide)”, the figure is below 100 µM; as for “Ac-pAph-Chg-Arg(HOOC-CH2-CH2)Gly-Pro-NH2 (peptide)”, below 100 µM; as for Ac-pAph-Chg-Arg-Leu-NH2 (peptide), below 100 µM.

In turn, “Ac-pAph-Chg-Arg-Pen(CH2COOH)-Pro-NH2 (peptide)” yielded a Ki below 100 µM. Consider Cbz-Ile-Arg-Leu-NH2, for which the Ki is below 100 µM.

The substance CF3C(O)-(iBu)Tyr-Chg-Arg-OH (peptide) came in with a Ki below 100 µM.

The substance “(3-pyridoyl)-Nal(2)-Chg-Arg-Leu-Pro-NH2 (peptide)” yielded a Ki below 100 µM.
